Test results from patent US20250042994A1 (HAINAN SIMCERE ZAIMING PHARMACEUTICAL, published 2025).

T1: human CD19 exon1-3-His tag protein (human, UniProt P15391 20-186, limits assumed)
T1 construct: membrane-distal part of the extracellular region, made in HEK293E cells; not shown: His tag
T1 sequence (looked up): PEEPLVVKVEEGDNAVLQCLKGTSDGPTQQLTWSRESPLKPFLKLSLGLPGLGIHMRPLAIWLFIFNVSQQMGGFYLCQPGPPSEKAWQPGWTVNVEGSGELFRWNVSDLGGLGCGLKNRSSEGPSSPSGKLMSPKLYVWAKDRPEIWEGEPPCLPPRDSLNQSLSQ

T2: Human CD19-his protein (human, UniProt P15391 20-291)
T2 construct: bought protein; also called recombinant human CD19-His; CD19 full-length protein; not shown: His tag
T2 sequence (looked up): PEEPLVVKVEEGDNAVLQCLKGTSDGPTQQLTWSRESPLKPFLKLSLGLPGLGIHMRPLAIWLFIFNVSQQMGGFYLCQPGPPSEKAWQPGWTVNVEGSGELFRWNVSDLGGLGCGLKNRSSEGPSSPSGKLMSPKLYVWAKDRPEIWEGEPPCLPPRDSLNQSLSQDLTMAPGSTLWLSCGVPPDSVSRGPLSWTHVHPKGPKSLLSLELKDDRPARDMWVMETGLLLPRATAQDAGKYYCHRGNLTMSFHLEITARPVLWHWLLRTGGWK

T3: murine CD19 protein (murine, UniProt P25918 17-287, limits assumed)
T3 construct: bought protein; also called commercial murine CD19
T3 sequence (looked up): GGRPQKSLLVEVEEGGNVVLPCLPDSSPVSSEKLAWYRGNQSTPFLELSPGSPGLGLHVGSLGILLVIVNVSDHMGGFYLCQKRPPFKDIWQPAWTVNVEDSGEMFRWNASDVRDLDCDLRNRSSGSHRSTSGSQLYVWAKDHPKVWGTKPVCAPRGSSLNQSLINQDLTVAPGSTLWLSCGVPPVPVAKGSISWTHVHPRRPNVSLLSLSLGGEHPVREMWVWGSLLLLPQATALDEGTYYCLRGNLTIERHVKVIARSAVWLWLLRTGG

T4: Human CD19-his protein (human, UniProt P15391 20-291)
T4 construct: bought protein; also called human CD19 protein; recombinant human CD19-His; not shown: His tag
T4 sequence (looked up): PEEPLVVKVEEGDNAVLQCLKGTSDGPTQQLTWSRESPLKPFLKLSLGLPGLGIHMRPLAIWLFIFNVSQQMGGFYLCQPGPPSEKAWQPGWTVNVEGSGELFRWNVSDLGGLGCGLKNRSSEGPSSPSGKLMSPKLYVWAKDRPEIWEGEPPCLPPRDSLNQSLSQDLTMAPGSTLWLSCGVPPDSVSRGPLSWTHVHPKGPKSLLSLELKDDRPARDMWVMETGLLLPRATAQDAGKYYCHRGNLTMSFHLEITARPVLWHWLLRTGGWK


Experiments:
[1] = target: T1, human CD19 exon1-3-His tag protein; experiment: ELISA on coated human CD19 exon 1-3-His
Human CD19-his protein [2] = target: T2, Human CD19-his protein; experiment: SPR Biacore, Ab captured on Protein A, CD19-His analyte
Outline: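 Apparent KD came from a Langmuir 1:1 fit of double-referenced sensorgrams. Recombinant human CD19-His analyte (top 200 nM, 1:1 serial dilution, 5 concentrations) flowed over Protein A-captured antibody for 240 s at 30 μl/min, then buffer for up to 600 s. Running buffer HBS-EP+ at 25 °C; regeneration with 10 mM glycine pH 1.5.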

murine CD19 protein = target: T3, murine CD19 protein; experiment: ELISA, coated murine CD19
Outline: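 Plates coated overnight at 4° C with recombinant murine or monkey CD19 and blocked with 2% BSA. Chimeric antibodies, serially diluted from 100 nM, bound for 2 h at 37° C. TMB development for 10 min with OD450 read-out.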

Human CD19-his protein [3] = target: T4, Human CD19-his protein; experiment: ELISA, antibody at 0.10 nM
Human CD19-his protein [4] = target: T4, Human CD19-his protein; experiment: ELISA, antibody at 10 nM
Human CD19-his protein [5] = target: T4, Human CD19-his protein; experiment: ELISA, antibody at 100 nM
Human CD19-his protein [6] = target: T4, Human CD19-his protein; experiment: ELISA, antibody at 0.01 nM
Human CD19-his protein [7] = target: T4, Human CD19-his protein; experiment: ELISA, antibody at 1.00 nM
Human CD19-his protein [8] = target: T4, Human CD19-his protein; experiment: ELISA on coated human CD19-His
Procedure: Human CD19-his protein (purchased from ACROBiosystems, catalog number: CD9-H52H2) was diluted with PBS to a final concentration of 4 μg/mL, and then added to a 96-well ELISA plate at 100 μl/well. The plate was sealed with a plastic film and incubated overnight at 4° C., the plate was washed 2 times with PBS the next day, and then a blocking solution [PBS+2% (w/w) BSA] was added for blocking at room temperature for 2 h. The blocking solution was poured off, and 100 nM gradiently diluted CD19 chimeric antibody or control antibody was added at 50 μl/well. After incubation at 37° C. for 2 h, the plate was washed 3 times with PBS. […] TMB substrate was added at 50 μl/well, and incubated at room temperature for 10 min, and then a stop solution (1.0 N HCl) was added at 50 μl/well. The OD450 nm values were read by an ELISA microplate reader (Multimode Plate Reader, EnSight, purchased from Perkin Elmer).

Human CD19-his protein [9] = target: T4, Human CD19-his protein; experiment: ELISA, antibody at 0.0001 nM
Human CD19-his protein [10] = target: T4, Human CD19-his protein; experiment: ELISA, antibody at 0.001 nM

binding result [1] | Kd (Human CD19-his protein [2]) [nM] | koff (Human CD19-his protein [2]) [s⁻¹] | kon (Human CD19-his protein [2]) [M⁻¹ s⁻¹] | binding result (murine CD19 protein) | OD450 (Human CD19-his protein [3]) | OD450 (Human CD19-his protein [4]) | OD450 (Human CD19-his protein [5]) | OD450 (Human CD19-his protein [6]) | OD450 (Human CD19-his protein [7]) | EC50 (read off the curve) (Human CD19-his protein [8]) [nM] | OD450 (Human CD19-his protein [9]) | OD450 (Human CD19-his protein [10]) | Binder
no binding (tested: 100 nM) | 5.98 | 0.00108 | 181000 |  |  |  |  |  |  |  |  |  | F5.8.6 (antibody, human IgG1, V domains shown, human-murine chimeric antibody, human IgG1 constant) VH: QVQLHQPGAELVMPGASVTLSCKASGYTFTSYWMHWVKQRPGQGLEWIGEIDPSDSYTTYDQKFKGKATLTVDKFSSTAYMQFSSLTSEDSAVYYCARLTGNHLDYWGQGTTLTVSS VL: DIVMTQSHKFMSSSVGDRVSITCKASQDVSPAVAWYQQKPGQSPKLLIYSTSYRNTGVPDRFTGSGSGTDFTFTISSVQAEDLAVYYCQQHYSIPLTFGAGTKLELK
 |  |  |  | no binding | 1.33 | 2.98 | 2.94 | 0.3 | 2.69 | ~0.1 | 0.05 | 0.08 | F3.77.6 (antibody, human IgG1, V domains shown, human-murine chimeric antibody, human IgG1) VH: EFQLQQSGPELVKPGASVKISCKASGYSFTDYNMNWVKQSNGKSLEWIGTINPNYITSYNQKFKGKATLTVDQSSSTAYMQLNSLTSEDSAVYYCAGDYKGYWGQGTTLTVSS VL: not shown
no binding (tested: 100 nM) | 1.18 | 0.000225 | 192000 |  |  |  |  |  |  |  |  |  | F5.7.1 (antibody, human IgG1, V domains shown, human-murine chimeric antibody, human IgG1 constant) VH: QVTLKESGPGILQPSQTLSLTCSFSGFSLTTFGMGVGWIRQPSGKGLEWLTHIWWDDDKYYNPALKSRLTISKDTSKNQVFLRIANVDTADTATYYCARVITTGVPYFDYWGQGTTLTVSS VL: ENVLTQSPAIMSASPGEKVTMTCRASSSVSSSYLYWYQQKSGASPKLWISSTSNLASGVPARFSGSGSGTSYSLTINSVEAEDAATYYCQQYSGYPWTFGGGTKLEIK
 |  |  |  | no binding | 1.02 | 2.9 | 3.21 | 0.19 | 2.27 | ~0.3 | 0.05 | 0.07 | F3.118.14 (antibody, human IgG1, V domains shown, human-murine chimeric antibody, human IgG1) VH: QVQLQQSGAELVRPGASVTLSCKASGYTFPDYEIHWVKQTPVHGLEWIGAIDPETGGIGYNQKFTGKAMLTADKSSSTAYMELRSLTSEDSAVYFCTRNYGSRWGQGSTLTVSS VL: not shown
